B1: PTPRD (parent)
chain: PVVSMDLDPQPITDEEEGLIWVVG
B2: MYBL2 (parent)
chain: FPNRTDQQCQYRWLRVLNPDLVKG

Variants of: B1
Assay: protein stability index of a GFP-peptide fusion (GPS, HEK-293T) (PSI 1-6); higher = more stable
Details: c terminus: a fixed tail appended
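Further: lentivirally expressed fusions sorted by FACS into six bins by GFP to DsRed ratio, PSI derived from sequencing read proportions per bin multiplied by bin number.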

Variant	protein stability index
DVVSMDLDPQPITDEEEGLIWVVG [P1D]	4.28
CVVSMDLDPQPITDEEEGLIWVVG [P1C]	3.12

Variants of: B2
Assay: as above
Details: c terminus: a fixed tail appended

Variant	protein stability index
FPNRTDQQCQYRWLRVLAPDLVKG [N18A]	2.17
FPNRTDQQCQYRWLRVLKPDLVKG [N18K]	1.68
FPNRTDQQCQYRWLRVLPPDLVKG [N18P]	1.98
FPNRTDQQCQYRWLRVLSPDLVKG [N18S]	2.17
FPNRTDQQCQYRWLRVLRPDLVKG [N18R]	3.02
FPNRTDQQCQYRWLRVLNPDKVKG [L21K]	2.01
FPNRTDQQCQYRWLRVLNPDGVKG [L21G]	1.66
FPNRTDQQCQYRWLRVLNPDCVKG [L21C]	2.18
FPNRTDQQCQYRWLRVLNPDVVKG [L21V]	2.26
FPNRTDQQCQYRWLRVLNPDWVKG [L21W]	1.91
FPNRTDQQCQYRWLRVLNPDNVKG [L21N]	2.37
FPNRTDQQCQYRWLRVLNPDYVKG [L21Y]	1.98
FPNRTDQQCQYRWLRVLNPDHVKG [L21H]	1.48
FPNRTDQQCQYRWLRVLNPDDVKG [L21D]	2.12
FPNRTDQQCQYRWLRVLNPDTVKG [L21T]	2.26
FPNRTDQQCQYRWLRVLNPDIVKG [L21I]	2.85
FPNRTDQQCQYRWLEVLNPDLVKG [R15E]	2.44
FPNRTDQQCQYRWLPVLNPDLVKG [R15P]	1.92
FPNRTDQQCQYRWLFVLNPDLVKG [R15F]	2.36
FPNRTDQQCQYRWLWVLNPDLVKG [R15W]	2.96
FPNRTDQQCQYRWLMVLNPDLVKG [R15M]	1
FPNRTDQQCQYRWLKVLNPDLVKG [R15K]	1.31
FPNRTDQQCQYRWLVVLNPDLVKG [R15V]	2.2
FPNRTDQQCQYRWLSVLNPDLVKG [R15S]	2

Variant	protein stability index
FPNRTDQQCQYRWLRVNNPDLVKG [L17N]	2.28
FPNRTDQQCQYRWLRVYNPDLVKG [L17Y]	1.34
FPNRTDQQCQYRWLRVMNPDLVKG [L17M]	1.95
FPNRTDQQCQYRWLRVANPDLVKG [L17A]	2.41
FPNRTDQQCQYRWLRVGNPDLVKG [L17G]	2.45
FPNRTDQQCQYRWLRVPNPDLVKG [L17P]	2.56
FPNRTDQQCQYRWLRVCNPDLVKG [L17C]	1.79
FPNRTDQQCQYRWLRVFNPDLVKG [L17F]	1.41
FPNRTDQQCQYRWLRVVNPDLVKG [L17V]	2.04
FPNRTDQQCQYRWLRVHNPDLVKG [L17H]	1.6
PPNRTDQQCQYRWLRVLNPDLVKG [F1P]	3
CPNRTDQQCQYRWLRVLNPDLVKG [F1C]	2.24
RPNRTDQQCQYRWLRVLNPDLVKG [F1R]	2.79
TPNRTDQQCQYRWLRVLNPDLVKG [F1T]	2.75
HPNRTDQQCQYRWLRVLNPDLVKG [F1H]	2.44
LPNRTDQQCQYRWLRVLNPDLVKG [F1L]	2.08
NPNRTDQQCQYRWLRVLNPDLVKG [F1N]	2.47
QPNRTDQQCQYRWLRVLNPDLVKG [F1Q]	2.76
KPNRTDQQCQYRWLRVLNPDLVKG [F1K]	2.14
FRNRTDQQCQYRWLRVLNPDLVKG [P2R]	2.49
FANRTDQQCQYRWLRVLNPDLVKG [P2A]	2.17
FLNRTDQQCQYRWLRVLNPDLVKG [P2L]	2.62
FMNRTDQQCQYRWLRVLNPDLVKG [P2M]	1.63
FSNRTDQQCQYRWLRVLNPDLVKG [P2S]	2.3

Variant	protein stability index
FKNRTDQQCQYRWLRVLNPDLVKG [P2K]	2.3
FCNRTDQQCQYRWLRVLNPDLVKG [P2C]	1.84
FFNRTDQQCQYRWLRVLNPDLVKG [P2F]	1.69
FPNRTDEQCQYRWLRVLNPDLVKG [Q7E]	2.15
FPNRTDIQCQYRWLRVLNPDLVKG [Q7I]	2.07
FPNRTDHQCQYRWLRVLNPDLVKG [Q7H]	2.05
FPNRTDFQCQYRWLRVLNPDLVKG [Q7F]	1.67
FPNRTDWQCQYRWLRVLNPDLVKG [Q7W]	2.29
FPNRTDMQCQYRWLRVLNPDLVKG [Q7M]	1.96
FPNRTDNQCQYRWLRVLNPDLVKG [Q7N]	2.38
FPNRTFQQCQYRWLRVLNPDLVKG [D6F]	2.36
FPNRTYQQCQYRWLRVLNPDLVKG [D6Y]	1.61
FPNRTKQQCQYRWLRVLNPDLVKG [D6K]	2.06
FPNRTEQQCQYRWLRVLNPDLVKG [D6E]	1.61
FPNRTRQQCQYRWLRVLNPDLVKG [D6R]	1.41
FPNRTWQQCQYRWLRVLNPDLVKG [D6W]	1.75
FPNRTDQQCQERWLRVLNPDLVKG [Y11E]	3.11
FPNRTDQQCQMRWLRVLNPDLVKG [Y11M]	2.12
FPNRTDQQCQDRWLRVLNPDLVKG [Y11D]	2.91
FPNRTDQQCQCRWLRVLNPDLVKG [Y11C]	2.29
FPNRTDQQCQWRWLRVLNPDLVKG [Y11W]	1.66
FPNRTDQQCQKRWLRVLNPDLVKG [Y11K]	2.23
FPNRTDQQCQTRWLRVLNPDLVKG [Y11T]	2.36
FPNRTDQQCQVRWLRVLNPDLVKG [Y11V]	2.02

Variant	protein stability index
FPNRDDQQCQYRWLRVLNPDLVKG [T5D]	1.98
FPNRNDQQCQYRWLRVLNPDLVKG [T5N]	2.01
FPNRADQQCQYRWLRVLNPDLVKG [T5A]	2.73
FPNRRDQQCQYRWLRVLNPDLVKG [T5R]	1.73
FPNRIDQQCQYRWLRVLNPDLVKG [T5I]	2.29
FPNRYDQQCQYRWLRVLNPDLVKG [T5Y]	1.95
FPNRKDQQCQYRWLRVLNPDLVKG [T5K]	2.29
FPNRTDQQCQYRWLRVLNPDLFKG [V22F]	1.59
FPNRTDQQCQYRWLRVLNPDLEKG [V22E]	1.55
FPNRTDQQCQYRWLRVLNPDLSKG [V22S]	2.25
FPNRTDQQCQYRWLRVLNPDLAKG [V22A]	1.71
FPNRTDQQCQYRWLRVLNPDLMKG [V22M]	2.08
FPNRTDQQCQYRWLRVLNPDLYKG [V22Y]	2.01
FPNRTDQQCQYRWLRVLNPDLWKG [V22W]	2.11
FPNRTDQQCQYRWLRVLNPDLQKG [V22Q]	1.54
FPNRTDQQCQYRWLRVLNPDLPKG [V22P]	1.83
FPNMTDQQCQYRWLRVLNPDLVKG [R4M]	2.2
FPNGTDQQCQYRWLRVLNPDLVKG [R4G]	1.74
FPNNTDQQCQYRWLRVLNPDLVKG [R4N]	1.94
FPNHTDQQCQYRWLRVLNPDLVKG [R4H]	2.47
FPNWTDQQCQYRWLRVLNPDLVKG [R4W]	2.23
FPNVTDQQCQYRWLRVLNPDLVKG [R4V]	1.96
FPNTTDQQCQYRWLRVLNPDLVKG [R4T]	2.02
FPNRTDQQCQYQWLRVLNPDLVKG [R12Q]	2.21

Variant	protein stability index
FPNRTDQQCQYAWLRVLNPDLVKG [R12A]	2.75
FPNRTDQQCQYRWLRVLNPWLVKG [D20W]	2.27
FPNRTDQQCQYRWLRVLNPMLVKG [D20M]	1.89
FPNRTDQQCQYRWLRVLNPILVKG [D20I]	1.74
FPNRTDQQCQYRWLRVLNPQLVKG [D20Q]	1.78
FPNRTDQQCQYRWLRVLNPYLVKG [D20Y]	1.76
FPNRTDQQCQYRWLRVLNPRLVKG [D20R]	2.22
FPNRTDQQCQYRWLRVLNPNLVKG [D20N]	2.43
FPNRTDQQCKYRWLRVLNPDLVKG [Q10K]	1.88
FPNRTDQQCDYRWLRVLNPDLVKG [Q10D]	2.04
FPNRTDQQCSYRWLRVLNPDLVKG [Q10S]	2.48
FPNRTDQQCLYRWLRVLNPDLVKG [Q10L]	2.34
FPNRTDQQCIYRWLRVLNPDLVKG [Q10I]	1.79
FPNRTDQQCGYRWLRVLNPDLVKG [Q10G]	1.48
FPNRTDQQCAYRWLRVLNPDLVKG [Q10A]	1.45
FPNRTDQQCQYRWLRVLNPDLVSG [K23S]	1.26
FPNRTDQQCQYRWLRVLNPDLVHG [K23H]	1.7
FPNRTDQQCQYRWLRVLNPDLVEG [K23E]	1.89
FPNRTDQQCQYRWLRVLNPDLVMG [K23M]	1.5
FPNRTDQQCQYRWLRVLNPDLVIG [K23I]	1.95
FPNRTDQQCQYRTLRVLNPDLVKG [W13T]	2.52
FPNRTDQQCQYRALRVLNPDLVKG [W13A]	2.59
FPNRTDQQCQYRYLRVLNPDLVKG [W13Y]	2.26
FPNRTDQQCQYRPLRVLNPDLVKG [W13P]	3.71

Variant	protein stability index
FPNRTDQQCQYRVLRVLNPDLVKG [W13V]	2.39
FPNRTDQQCQYRGLRVLNPDLVKG [W13G]	3.56
FPNRTDQQCQYRILRVLNPDLVKG [W13I]	1.91
FPNRTDQCCQYRWLRVLNPDLVKG [Q8C]	1.42
FPNRTDQKCQYRWLRVLNPDLVKG [Q8K]	1.97
FPNRTDQGCQYRWLRVLNPDLVKG [Q8G]	1.34
FPNRTDQWCQYRWLRVLNPDLVKG [Q8W]	1.97
FPNRTDQFCQYRWLRVLNPDLVKG [Q8F]	1.71
FPNRTDQTCQYRWLRVLNPDLVKG [Q8T]	1.82
FPNRTDQDCQYRWLRVLNPDLVKG [Q8D]	2.09
FPNRTDQECQYRWLRVLNPDLVKG [Q8E]	2.01
FPNRTDQVCQYRWLRVLNPDLVKG [Q8V]	2.05
FPNRTDQICQYRWLRVLNPDLVKG [Q8I]	2.01
FPNRTDQQCQYRWLRVLNPDLVKY [G24Y]	1.85
FPNRTDQQCQYRWLRVLNPDLVKI [G24I]	1.43
FPNRTDQQCQYRWLRVLNPDLVKH [G24H]	1.41
FPNRTDQQCQYRWLRVLNPDLVKC [G24C]	1.89
FPNRTDQQCQYRWLRVLNPDLVKK [G24K]	2.01
FPNRTDQQCQYRWLRVLNPDLVKT [G24T]	1.87
FPNRTDQQCQYRWLRVLNPDLVKA [G24A]	1.41
FPNRTDQQCQYRWLRRLNPDLVKG [V16R]	1.56
FPNRTDQQCQYRWLRPLNPDLVKG [V16P]	2.72
FPNRTDQQCQYRWLRKLNPDLVKG [V16K]	2.02
FPNRTDQQCQYRWLRCLNPDLVKG [V16C]	1.97

Variant	protein stability index
FPNRTDQQCQYRWLRILNPDLVKG [V16I]	1.57
FPNRTDQQCQYRWLRELNPDLVKG [V16E]	2.44
FPNRTDQQCQYRWLRWLNPDLVKG [V16W]	2.57
FPNRTDQQCQYRWLRMLNPDLVKG [V16M]	1.78
FPNRTDQQCQYRWLRTLNPDLVKG [V16T]	2.13
FPNRTDQQIQYRWLRVLNPDLVKG [C9I]	2.16
FPNRTDQQHQYRWLRVLNPDLVKG [C9H]	2.88
FPNRTDQQRQYRWLRVLNPDLVKG [C9R]	2.85
FPNRTDQQVQYRWLRVLNPDLVKG [C9V]	2.05
FPNRTDQQSQYRWLRVLNPDLVKG [C9S]	2.45
FPNRTDQQFQYRWLRVLNPDLVKG [C9F]	2.38
FPNRTDQQAQYRWLRVLNPDLVKG [C9A]	2
FPNRTDQQDQYRWLRVLNPDLVKG [C9D]	2.19
FPNRTDQQPQYRWLRVLNPDLVKG [C9P]	2.5
FPNRTDQQLQYRWLRVLNPDLVKG [C9L]	2.26
FPNRTDQQYQYRWLRVLNPDLVKG [C9Y]	2.49
FPNRTDQQNQYRWLRVLNPDLVKG [C9N]	2.18
FPHRTDQQCQYRWLRVLNPDLVKG [N3H]	1.98
FPSRTDQQCQYRWLRVLNPDLVKG [N3S]	1.78
FPDRTDQQCQYRWLRVLNPDLVKG [N3D]	1.83
FPLRTDQQCQYRWLRVLNPDLVKG [N3L]	1.94
FPWRTDQQCQYRWLRVLNPDLVKG [N3W]	1.31
FPERTDQQCQYRWLRVLNPDLVKG [N3E]	1.96
FPQRTDQQCQYRWLRVLNPDLVKG [N3Q]	2.04

Variant	protein stability index
FPNRTDQQCQYRWLRVLNTDLVKG [P19T]	1.67
FPNRTDQQCQYRWLRVLNFDLVKG [P19F]	1.45
FPNRTDQQCQYRWLRVLNQDLVKG [P19Q]	1.94
FPNRTDQQCQYRWLRVLNMDLVKG [P19M]	2.2
FPNRTDQQCQYRWLRVLNWDLVKG [P19W]	1.63
FPNRTDQQCQYRWLRVLNSDLVKG [P19S]	2.06
FPNRTDQQCQYRWLRVLNDDLVKG [P19D]	1.97
FPNRTDQQCQYRWNRVLNPDLVKG [L14N]	2.46
FPNRTDQQCQYRWGRVLNPDLVKG [L14G]	1.48
FPNRTDQQCQYRWIRVLNPDLVKG [L14I]	2.03
FPNRTDQQCQYRWQRVLNPDLVKG [L14Q]	2.08
FPNRTDQQCQYRWSRVLNPDLVKG [L14S]	2.35
FPNRTDQQCQYRWHRVLNPDLVKG [L14H]	2.67
FPNRTDQQCQYRWYRVLNPDLVKG [L14Y]	1.83
FPNRTDQQCQYRWTRVLNPDLVKG [L14T]	1.64
FPNRTDQQCQYRWERVLNPDLVKG [L14E]	2.28
FPNRTDQQCQYRWCRVLNPDLVKG [L14C]	2.02
FPNRTDQQCQYRWKRVLNPDLVKG [L14K]	2.88

From the supplement of paper PMC10567573
